The text below walks through data of patent US9221867B2, “Method for transporting a compound across the blood-brain barrier” (Angiochem Inc., priority 2003, dated 2015).

Usually Papp A→B stands for the apparent permeability from the apical to the basolateral side of a cell layer. Low readings indicate poor permeation, high ones ready permeation.

A short description of one series: in vitro. The note with it: bovine.
The test system of series [1] is bovine brain capillary endothelial cells (BBCECs).
Description: (§1) The model consists of a co-culture of bovine brain capillary endothelial cells and rat glial cells.
(§2) The in vitro model of BBB was established by using a co-culture of BBCECs and astrocytes. Prior to cell culture, plate inserts (Millicell-PC 3.0 μM; 30-mm diameter) were coated on the upper side with rat tail collagen. They were then set in six-well microplates containing the astrocytes and BBCECs were plated on the upper side of the filters in 2 mL of co-culture medium. This BBCEC medium was changed three times a week. Under these conditions, differentiated BBCECs formed a confluent monolayer 7 days later. Experiments were performed between 5 and 7 days after confluence was reached. The permeability coefficient for sucrose was measured to verify the endothelial permeability.
(§3) Briefly, after removing the meninges, the brain tissue was forced gently through a 82 μm nylon sieve. Astrocytes were plated on six-well microplates at a concentration of 1.2×10^5 cells/mL in 2 mL of optimal culture medium (DMEM) supplemented with 10% heat inactivated fetal bovine serum. The medium was changed twice a week.
(§4) Bovine brain capillary endothelial cells (BBCECs) were obtained from Cellial Technologies. The cells were cultured in the presence of DMEM medium supplemented with 10% (v/v) horse serum and 10% heat-inactivated calf serum, 2 mM of glutamine, 50 μg/mL of gentamycin, and 1 ng/mL of basic fibroblast growth factor, added every other day.
(§5) One insert covered with BBCECs was set into a six-well microplate with 2 mL of Ringer-Hepes and was pre-incubated for 2 h at 37° C. [^125I]-aprotinin, [^125I]-p97, [^125I]-ceruloplasmin or [^125I]-transferrin (250 nM final concentration) was added to the upper side of the filter covered with cells. At various times, the insert was transferred to another well to avoid a possible reendocytosis of [^125I]-proteins by the abluminal side of the BBCECs. At the end of experiment, [^125I]-proteins were assessed in 500 μL of the lower chamber of well by TCA precipitation.
(§6) Aprotinin, p97 and bovine holo-transferrin were iodinated with standard procedures using iodo-beads from Sigma™. Bovine holo-transferrin was diluted in 0.1M phosphate buffer, pH 6.5 (PB). P97 obtained from Synapse Technologies in neutralized citrate at pH 7.0 was dialyzed against this PB. Two iodo-beads were used for each protein. These beads were washed twice with 3 mL of PB on a Whatman™ filter and resuspended in 60 μL of PB. ^125I (1 mCi) from Amersham-Pharmacia biotech was added to the bead suspension for 5 minutes at room temperature. The iodination for each protein was initiated by the addition of 100 μg (80-100 μL).
The subject of series [2] is endothelial cell monolayers (in vitro blood-brain barrier model).
Description: (§7) The permeability coefficient (Pe) was calculated as:
(§8) At the end of the experiments, amounts of the radiotracers in the basolateral compartment were measured in a liquid scintillation counter. The permeability coefficient (Pe) for sucrose was calculated as previously described (Dehouck, M. P., Jolliet-Riant, P., Brée, F., Fruchart, J. C., Cecchelli, R., Tillement, J. P., J. Neurochem. 58:1790-1797, 1992) using filters coated or non-coated with EC.
(§9) The transport of Angio-pep1 from the apical-to-basolateral side of inserts covered with or without endothelial cell monolayers was measured. The results are expressed as the clearance of Angio-pep1 as a function of time. The slopes correspond to the permeability of the peptide through the filter alone (Psf) and to the total permeability of the endothelial cell monolayers (Pst).
(§10) The permeability coefficients for Angio-pep1, aprotinin, leptin and transferrin were determined using the in vitro blood-brain barrier model. The permeability coefficient (Pe) was calculated as described above.
For series [3] the test system is unchanged. The series can be described thus: Permeability coefficient (Pe) of proteins in the in vitro blood-brain barrier model. The note with it: for Ratios (permeability coefficients): Pe of Angio-pep1 divided by Pe of the named protein; for Permeability coefficient (Pe): in vitro blood-brain barrier model.
Description: as §7, §8, §9, §10
Series [4] deals with bovine brain capillary endothelial cells (BBCECs). The series can be described thus: Transcytosis of 125I-proteins across BBCEC monolayers (in vitro blood-brain barrier model). The note with it: for Transcytosis: across in vitro BBB model; for Ratios Aprotinin/Protein: aprotinin transcytosis divided by that of the named protein.
Description: as §1, §2, §3, §4, §5, §6
The next series has as its system mouse brain. The series can be described thus: In situ mouse brain perfusion (apparent volume of distribution). The note with it: 10 min perfusion.
For a further series, the system named is BBCEC monolayers. The series can be described thus: SDS-PAGE/autoradiography of protein integrity after transcytosis across BBCEC monolayers. The format is in vitro ADME, bovine. The settings on record: 250 nM, SDS-PAGE, FIG. 4. An excerpt: At each time point, filters were put in the next well of the 6-well plates. At the end of the experiment, aliquots were taken in each well and submitted to SDS-PAGE. Gels were then submitted to detection by autoradiography. The results, presented in FIG. 4, indicate that aprotinin integrity is not affected by its transcytosis across BBCEC monolayers.

“Also recorded” adds a separate entry of the source. Where two headings read alike, the source gives them in different places. Where a SMILES comes first, the peptide text is derived from it.

Description for mouse brain: The uptake of [^125I]-aprotinin to the luminal side of mouse brain capillaries was measured using the in situ brain perfusion method adapted in our laboratory for the study of drug uptake in the mouse brain (Dagenais et al., 2000, J. Cereb. Blood Flow Metab. 20(2):381-386). Briefly, the right common carotid of ketamine/xylazine (140/8 mg/kg i.p.) anesthetized mice was exposed and ligated at the level of the bifurcation of the common carotid, rostral to the occipital artery. The common carotid was then catheterized rostrally with polyethylene tubing (0.30 mm i.d.×0.70 mm o.d.) filled with heparin (25 U/ml) and mounted on a 26-gauge needle. The syringe containing the perfusion fluid (10 nM of [^125I]-aprotinin in Krebs/bicarbonate buffer at a pH7.4 gassed with 95% O2 and 5% CO2) was placed in an infusion pump (Harvard pump PHD 2000; Harvard Apparatus) and connected to the catheter. […]
Aprotinin uptake was expressed as the volume of distribution (Vd) from the following equation: Vd=Q*br/C*pf where Q*br is the calculated quantity of [^125I]-aprotinin per gram of right brain hemisphere and C*pf is the labeled tracer concentration measured in the perfusate.
The brain apparent volume of distribution was measured for [^125I]-transferrin, [^125I]-aprotinin and [^125I]-Angio-pep1. […]

Compound `C[C@@H](O)[C@H](N)C(=O)N[C@@H](Cc1ccccc1)C(=O)N[C@@H](Cc1ccccc1)C(=O)N[C@@H](Cc1ccc(O)cc1)C(=O)NCC(=O)NCC(=O)N[C@@H](CS)C(=O)N[C@@H](CCCNC(=N)N)C(=O)NCC(=O)N[C@@H](CCCCN)C(=O)N[C@@H](CCCNC(=N)N)C(=O)N[C@@H](CC(N)=O)C(=O)N[C@@H](CC(N)=O)C(=O)N[C@@H](Cc1ccccc1)C(=O)N[C@@H](CCCCN)C(=O)N[C@H](C(=O)N[C@@H](CCC(=O)O)C(=O)N[C@@H](CCC(=O)O)C(=O)N[C@@H](Cc1ccc(O)cc1)C(=O)O)[C@@H](C)O` [Angio-pep1] (H-TFFYGGCRGKRNNFKTEEY-OH; N-terminus and C-terminus assumed) showed an apparent permeability from apical to basolateral (Papp A→B) in the series “in vitro” of 20 ×10⁻⁶ cm/s. The “transcytosis capacity compared with other proteins” value in series [1] is “higher than that of other proteins including aprotinin, leptin and transferrin”. Also, in series [2], the “Ratios (permeability coefficients)” value was determined as 1. Moreover, the “Permeability coefficient (Pe)” value in series [2] (bovine) stood at 20 ×10⁻⁶ cm/s.
Take “Leptin: comparison protein for permeability coefficient [reference compound]”: in series [3], the “Ratios (permeability coefficients)” value is on record as 21 and the “Permeability coefficient (Pe)” value is 0.917 ×10⁻⁶ cm/s.
With “Streptavidin: comparison protein in transcytosis experiment [reference compound]”, in series [4], the Transcytosis turned out to be 0.09 pmol/h/cm^2 and the “Ratios Aprotinin/Protein” value was found to be 30.
Consider aprotinin, for which, in series [3], the “Ratios (permeability coefficients)” value worked out at 7.5 and the “Permeability coefficient (Pe)” value is 2.67 ×10⁻⁶ cm/s. The “brain uptake / apparent volume of distribution” value in the series on mouse brain is “higher brain uptake; also recorded: higher than that of transferrin”. Besides, the “integrity of the protein after transcytosis across BBCEC monolayers” value in the series on BBCEC monolayers was “not affected”. For the same compound, in series [4], the Transcytosis came to 2.7 pmol/h/cm^2 and the “Ratios Aprotinin/Protein” value stood at 1. In series [4] (in vitro blood-brain barrier model), the “transcytosis capacity compared with other proteins” value was “higher transcytosis capacity than transferrin, p97 or ceruloplasmin”. Besides, the “transendothelial transport / transcytosis of aprotinin higher than that of other proteins” value in series [4] (versus other tested proteins incl. transferrin, ceruloplasmin) is 10-50 fold.
